For one test, the target named is T1, HDX_E1+E2 CD73 chimera (human; chicken, UniProt P21589 27-553).
T1 chain: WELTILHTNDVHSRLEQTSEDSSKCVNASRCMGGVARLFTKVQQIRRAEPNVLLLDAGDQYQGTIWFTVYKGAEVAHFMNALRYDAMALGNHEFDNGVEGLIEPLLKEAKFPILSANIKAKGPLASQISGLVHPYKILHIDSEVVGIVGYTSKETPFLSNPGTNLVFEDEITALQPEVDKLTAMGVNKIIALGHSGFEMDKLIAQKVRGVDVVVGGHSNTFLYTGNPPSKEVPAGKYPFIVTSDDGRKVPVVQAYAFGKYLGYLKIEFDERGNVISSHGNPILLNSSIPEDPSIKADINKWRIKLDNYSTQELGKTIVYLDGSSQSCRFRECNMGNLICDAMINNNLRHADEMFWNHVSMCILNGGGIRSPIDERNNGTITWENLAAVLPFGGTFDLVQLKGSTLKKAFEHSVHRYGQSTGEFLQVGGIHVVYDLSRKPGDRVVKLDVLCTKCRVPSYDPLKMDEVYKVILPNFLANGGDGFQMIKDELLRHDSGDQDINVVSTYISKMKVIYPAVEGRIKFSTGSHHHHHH
The test is described as follows: SPR (ProteOn), CD73 variant immobilized; 2:1 fit. As for the experimental part: Binding of MEDI9447 to wild-type and mutant CD73 proteins was measured by surface plasmon resonance (SPR) using a ProteOn instrument (BioRad). CD73 crude cell supernatant protein samples were diluted to 3 µg/ml in PBS, 0.005% Tween-20, pH 7.4 (BioRad) and immobilized to ~400 RU on a HTG tris-NTA sensor chip (BioRad) pre-activated with 10 mM NiSO₄, 10 mM MES, pH 6.0 (BioRad). An equivalently diluted crude cell supernatant sample from non-transfected cells was included as a reference channel control. Sensorgrams were recorded by flowing two-fold dilutions of MEDI9447 prepared in PBS, 0.005% Tween-20, pH 7.4, ranging from 5 nM to 0.31 nM. […] Antibody binding was measured at a flow rate of 100 µL/min with a 3 min association phase and 20 min dissociation phase. The sensor chip surface was regenerated between each run by an 800 s injection of 300 mM EDTA, pH 8.5 (BioRad) at a flow rate of 30 µL/min. Binding kinetics were analyzed using the ProteOn data analysis software. Double referencing was performed and, unless noted otherwise, a 1:1 Langmuir binding model was utilized to fit the data. Some CD73 variants containing mutations within the amino acid region 171-188 fit poorly to a 1:1 model (i.e., Chi² values >10% of Rmax). Where noted, these variants were fit with a heterogenous antigen (2:1) model. […] Due to the assay format (antigen immobilized) and the dimeric state of CD73, KD values may be exaggerated due to avidity effects. However, it is not anticipated that this impacts ranking of MEDI9447 binding to the different CD73 variants.

Test [1] deals with T2, Human CD73 on cells (MDA-MB-231, Jurkat CD73 knock-in, NCI-H322) (human, UniProt P21589 27-549).
T2 construct: GPI-anchored native protein; also called native human CD73
T2 sequence: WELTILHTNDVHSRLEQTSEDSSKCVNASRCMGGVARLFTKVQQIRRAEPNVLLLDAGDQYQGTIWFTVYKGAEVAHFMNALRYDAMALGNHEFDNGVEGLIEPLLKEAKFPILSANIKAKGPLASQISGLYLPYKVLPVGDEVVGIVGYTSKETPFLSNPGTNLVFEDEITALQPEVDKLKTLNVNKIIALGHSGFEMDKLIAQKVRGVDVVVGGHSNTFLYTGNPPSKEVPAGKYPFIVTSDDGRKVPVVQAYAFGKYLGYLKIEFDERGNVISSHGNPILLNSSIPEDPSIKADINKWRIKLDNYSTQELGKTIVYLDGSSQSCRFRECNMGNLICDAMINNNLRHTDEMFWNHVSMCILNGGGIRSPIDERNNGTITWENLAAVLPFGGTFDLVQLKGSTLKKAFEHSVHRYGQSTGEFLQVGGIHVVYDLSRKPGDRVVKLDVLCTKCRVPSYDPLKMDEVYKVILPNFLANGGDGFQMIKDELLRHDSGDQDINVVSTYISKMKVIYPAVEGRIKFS
The test is described as follows: flow cytometry, Jurkat (CD73 knock-in) / Jurkat.

Test [2] deals with T3, Cynomolgus CD73 on MK-1 cells (cynomolgus, UniProt A0A2K5V5U7 27-549).
T3 construct: whole, on cells; also called MK-1 (cyno)
T3 sequence: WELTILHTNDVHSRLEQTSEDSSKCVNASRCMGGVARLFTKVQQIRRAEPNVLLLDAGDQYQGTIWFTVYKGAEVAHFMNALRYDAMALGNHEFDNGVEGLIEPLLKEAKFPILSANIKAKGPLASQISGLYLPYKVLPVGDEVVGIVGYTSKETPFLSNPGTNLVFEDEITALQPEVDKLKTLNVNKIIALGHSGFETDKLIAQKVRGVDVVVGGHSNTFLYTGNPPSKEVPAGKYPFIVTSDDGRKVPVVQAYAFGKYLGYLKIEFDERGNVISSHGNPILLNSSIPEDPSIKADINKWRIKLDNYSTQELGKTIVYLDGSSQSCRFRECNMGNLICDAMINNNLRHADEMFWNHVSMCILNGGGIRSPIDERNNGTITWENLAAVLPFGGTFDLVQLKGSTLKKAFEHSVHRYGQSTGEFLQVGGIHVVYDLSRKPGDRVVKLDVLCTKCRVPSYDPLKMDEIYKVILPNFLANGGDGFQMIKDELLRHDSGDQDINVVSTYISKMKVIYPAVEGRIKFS
The test is described as follows: flow cytometry on cells. In general terms: A flow cytometer gives signals particle by particle.

B1: MEDI9447 (antibody, human IgG1, lambda, V domains shown)
VH: EVQLLESGGGLVQPGGSLRLSCAASGFTFSSYAYSWVRQAPGKGLEWVSAISGSGGRTYYADSVKGRFTISRDNSKNTLYLQMNSLRAEDTAVYYCARLGYGRVDEWGRGTLVTVSS
VL: QSVLTQPPSASGTPGQRVTISCSGSLSNIGRNPVNWYQQLPGTAPKLLIYLDNLRLSGVPDRFSGSKSGTSASLAISGLQSEDEADYYCATWDDSHPGWTFGGGTKLTVLG
notes: Human IgG1-TM (L234F, L235E, P331S), lambda light chain; also called clone 10.3 antibody; 73combo3
With B1, in the test with HDX_E1+E2 CD73 chimera, binding was put at a Kd of 4.43 nM; the koff (usually the rate constant with which the complex falls apart) came to 0.0211 s⁻¹; the kon – broadly, the second-order rate constant of association – turned out to be 4.76e+06 M⁻¹ s⁻¹. Besides, the “Mean Fluorescence Intensity Ratio (MFIR)” value in test [1] was found to be 7.9. In addition, the Kd (as a rule, the concentration at which binding is half-saturated) in test [2] was determined as 0.084 nM.

The values are drawn from patent US20230340152A1 (published 2023).
